From patent publication US9234007B2, “RGD mimetic γ-AApeptides and methods of use” (UNIVERSITY OF SOUTH FLORIDA, priority 2012, dated 2016)

How the values were obtained:
integrin αvβ3 = test: in vivo; design: species or system mice; conditions: mouse, iv; for Liver uptake, blocking group / Radioactivity in the blood, blocking group / U87MG tumor uptake, blocking: 10 mg/kg
Experimental: (§1) PET scans at various time points post-injection (p.i.), as well as quantitative region-of-interest (ROI) analysis of the PET data, were performed as described previously.^14 Coronal and transaxial PET slices that contain the U87MG tumors are shown in FIG. 5A, and the quantitative data are shown in FIGS. 5B and 5C. […] PET scans were performed using an Inveon microPET/microCT rodent model scanner (Siemens Medical Solutions USA, Inc.). Each U87MG tumor-bearing mouse was injected with 5-10 MBq of the PET tracer via tail vein and 5 minute static PET scans were performed at various time points post-injection (p.i.). The images were reconstructed using a maximum a posteriori (MAP) algorithm, with no attenuation or scatter correction. For each microPET scan, three-dimensional (3D) regions-of-interest (ROIs) were drawn over the tumor and major organs by using vendor software (Inveon Research Workplace [IRW]) on decay-corrected whole-body images. Assuming a tissue density of 1 g/mL, the ROIs were converted to MBq/g using a conversion factor (pre-determined using a 20 mL centrifuge tube filled with ˜37 MBq of ^64CuCl2 as a phantom), and then divided by the total administered radioactivity to obtain an image ROI-derived percentage injected dose per gram of tissue (% ID/g).

in vivo = test: in vivo; design: species or system mice; conditions: female, nude, mouse, iv, 10 mg/kg, total radioactivity
Experimental: as §1

In the case of N=C(N)NCCC(=O)N(CC(=O)NCCN(CC(N)=O)C(=O)CC(=O)O)C[C@H](Cc1ccccc1)NC(=O)CCCCCNC(=O)CN1CCN(CC(=O)O)CCN(CC(=O)O)CCN(CC(=O)O)CC1 [^64Cu-γ-AA2, metal not drawn], the clearance route (integrin αvβ3) is reported as “both hepatobiliary and renal clearance”, the “Liver uptake, blocking group” value (integrin αvβ3; 0.5 h) is reported as 7.2±2.0 % ID/g and the “Liver uptake, blocking group” value (integrin αvβ3; 2 h) is reported as 6.1±1.6 % ID/g. For the same compound, the “Radioactivity in the blood, blocking group” value (shortened to “Radioactivity in the blood”) (integrin αvβ3; 2 h) was 0.4±0.1 % ID/g, the “U87MG tumor uptake, blocking” value (integrin αvβ3; 2 h) was 0.4±0.1 % ID/g and the “Liver uptake, blocking group” value (integrin αvβ3; 4 h) was 5.3±1.3 % ID/g. For the same compound, the “Radioactivity in the blood” value (integrin αvβ3; 4 h) was 0.4±0.1 % ID/g, the “U87MG tumor uptake, blocking” value (integrin αvβ3; 4 h) was 0.4±0.1 % ID/g and the “Liver uptake, blocking group” value (integrin αvβ3; 24 h) was 4.0±0.6 % ID/g. The “Radioactivity in the blood” value (integrin αvβ3; 24 h) was 0.4±0.1 % ID/g, the “U87MG tumor uptake, blocking” value (integrin αvβ3; 24 h) was 0.4±0.1 % ID/g and the U87MG tumor uptake (integrin αvβ3; 0.5 h) was 0.9±0.3 % ID/g. For the same compound, the tumor/muscle ratio (integrin αvβ3; 0.5 h) was 3.8±0.9, the U87MG tumor uptake (integrin αvβ3; 2 h) was 1.0±0.2 % ID/g and the tumor/muscle ratio (integrin αvβ3; 2 h) was 4.8±1.8. The U87MG tumor uptake (integrin αvβ3; 4 h) was 1.1±0.2 % ID/g, the tumor/muscle ratio (integrin αvβ3; 4 h) was 5.8±1.4 and the U87MG tumor uptake (integrin αvβ3; 24 h) was 0.7±0.2 % ID/g. For the same compound, the tumor/muscle ratio (integrin αvβ3; 24 h) was 8.3±3.9 and the tissue uptake at 0.5 h (in vivo) was 0.5 ± 0.1 %ID/g.
